Data as given in publication PMC10397247.
Blank lines part the entries; values can stand above or below the binder they belong to.

How the values were obtained:
Core_INNN-es_KEKK = target: T1, Core_INNN-es_KEKK; assay: two-hybrid library CCmax; settings: mean of both orientations;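 note: natural log of median RNA to DNA barcode read ratio; higher means stronger binding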
T1 chain: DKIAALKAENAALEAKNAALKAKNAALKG

P8mS = target: T2, P8mS; assay: two-hybrid library CC1; settings: mean of both orientations;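 note: natural log of median RNA to DNA barcode read ratio; higher means stronger binding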
T2 chain: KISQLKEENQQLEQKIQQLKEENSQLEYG

P4mS = target: T3, P4mS; assay: two-hybrid library CC1; settings: mean of both orientations;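 note: natural log of median RNA to DNA barcode read ratio; higher means stronger binding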
T3 chain: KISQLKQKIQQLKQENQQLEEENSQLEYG

P6SC2 = target: T4, P6SC2; assay: two-hybrid library CC1; settings: mean of both orientations;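 note: natural log of median RNA to DNA barcode read ratio; higher means stronger binding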
T4 chain: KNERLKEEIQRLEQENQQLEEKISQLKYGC

P6 = target: T5, P6; assay: two-hybrid library CC1; settings: mean of both orientations;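 note: natural log of median RNA to DNA barcode read ratio; higher means stronger binding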
T5 chain: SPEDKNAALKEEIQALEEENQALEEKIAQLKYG

P9 = target: T6, P9; assay: two-hybrid library CC1; settings: mean of both orientations;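 note: natural log of median RNA to DNA barcode read ratio; higher means stronger binding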
T6 chain: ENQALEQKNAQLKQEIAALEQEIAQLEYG

P12 = target: T7, P12; assay: two-hybrid library CC1; settings: mean of both orientations
T7 chain: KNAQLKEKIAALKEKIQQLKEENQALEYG

P6mS = target: T8, P6mS; assay: two-hybrid library CC1; settings: mean of both orientations
T8 chain: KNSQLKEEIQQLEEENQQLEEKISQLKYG

P5 = target: T9, P5; assay: two-hybrid library CC1; settings: mean of both orientations
T9 chain: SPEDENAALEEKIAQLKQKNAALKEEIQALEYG

P3 = target: T10, P3; assay: two-hybrid library CC1; settings: mean of both orientations
T10 chain: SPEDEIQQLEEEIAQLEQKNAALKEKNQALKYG

P11 = target: T11, P11; assay: two-hybrid library CC1; settings: mean of both orientations
T11 chain: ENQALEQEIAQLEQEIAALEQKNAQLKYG

P5mS = target: T12, P5mS; assay: two-hybrid library CC1; settings: mean of both orientations
T12 chain: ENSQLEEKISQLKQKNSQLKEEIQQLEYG

P8 = target: T13, P8; assay: two-hybrid library CC1; settings: mean of both orientations
T13 chain: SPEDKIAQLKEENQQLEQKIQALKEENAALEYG

P6SC1 = target: T14, P6SC1; assay: two-hybrid library CC1; settings: mean of both orientations
T14 chain: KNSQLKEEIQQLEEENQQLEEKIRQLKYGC

P4 = target: T15, P4; assay: two-hybrid library CC1; settings: mean of both orientations
T15 chain: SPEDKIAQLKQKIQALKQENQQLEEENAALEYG

P5SC1 = target: T16, P5SC1; assay: two-hybrid library CC1; settings: mean of both orientations
T16 chain: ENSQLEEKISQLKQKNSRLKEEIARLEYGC

P7 = target: T17, P7; assay: two-hybrid library CC1; settings: mean of both orientations
T17 chain: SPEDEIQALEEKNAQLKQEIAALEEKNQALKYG

P10 = target: T18, P10; assay: two-hybrid library CC1
T18 chain: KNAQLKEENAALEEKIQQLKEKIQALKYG

P3mS = target: T19, P3mS; assay: two-hybrid library CC1; settings: mean of both orientations
T19 chain: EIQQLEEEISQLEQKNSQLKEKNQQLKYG

P7mS = target: T20, P7mS; assay: two-hybrid library CC1; settings: mean of both orientations
T20 chain: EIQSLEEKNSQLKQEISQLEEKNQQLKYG

P5SC2 = target: T21, P5SC2; assay: two-hybrid library CC1; settings: mean of both orientations
T21 chain: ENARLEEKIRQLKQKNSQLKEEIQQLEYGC

Core_IIII-es_KKEE = target: T22, Core_IIII-es_KKEE; assay: two-hybrid library CCmax; settings: mean of both orientations
T22 chain: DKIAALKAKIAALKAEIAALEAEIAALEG

interaction score (Core_INNN-es_KEKK): 1.91
B1: Core_INNN-es_EKEE (peptide)
chain: DEIAALEAKNAALKAENAALEAENAALEG

B2: P10 (peptide)
chain: KNAQLKEENAALEEKIQQLKEKIQALKYG
interaction score (P8mS): -2.75 | interaction score (P4mS): -2.94 | interaction score (P6SC2): -2.28 | interaction score (P6): -1.77 | interaction score (P9): 0.493 | interaction score (P12): -2.49 | interaction score (P6mS): -2.78 | interaction score (P5): -2.96 | interaction score (P3): -1.63 | interaction score (P11): -0.938 | interaction score (P5mS): -2.88 | interaction score (P8): -2.83 | interaction score (P6SC1): -2.61 | interaction score (P4): -2.91 | interaction score (P5SC1): -2.65 | interaction score (P7): -0.907 | interaction score (P10): -2.46 | interaction score (P3mS): -2.74 | interaction score (P7mS): -2.22 | interaction score (P5SC2): -2.77

interaction score (Core_IIII-es_KKEE): 1.78
B3: Core_IIII-es_EEKK (peptide)
chain: DEIAALEAEIAALEAKIAALKAKIAALKG
